From patent US20220411483A1 (Chugai, published 2022)

T1: FcgRIIb (human, UniProt P31994 43-217)
T1 construct: extracellular domain; also called FcγRIIb
T1 sequence (looked up): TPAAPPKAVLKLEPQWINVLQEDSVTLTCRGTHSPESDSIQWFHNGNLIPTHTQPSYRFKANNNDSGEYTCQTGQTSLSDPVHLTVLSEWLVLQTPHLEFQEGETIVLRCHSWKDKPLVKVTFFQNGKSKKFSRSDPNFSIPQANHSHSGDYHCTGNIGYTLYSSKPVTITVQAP

T2: FcgRIIaR (human, UniProt P12318 34-217)
T2 construct: extracellular domain; also called FcγRIIa R type; FcγRIIa (R type)
T2 sequence (looked up): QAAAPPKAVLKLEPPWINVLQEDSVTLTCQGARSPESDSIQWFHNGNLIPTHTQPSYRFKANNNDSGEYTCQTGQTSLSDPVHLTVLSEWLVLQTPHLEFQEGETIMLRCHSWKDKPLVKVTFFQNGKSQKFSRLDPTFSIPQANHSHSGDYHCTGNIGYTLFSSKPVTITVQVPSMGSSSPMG


Columns and labels:
FcgRIIb = target: T1, FcgRIIb; assay: SPR, amount bound per captured antibody
FcgRIIaR = target: T2, FcgRIIaR; assay: SPR, amount bound per captured antibody
human complement C1q = target: T3, human complement C1q (human, UniProt P02745 23-245; P02746 28-253; P02747 29-245); assay: SPR, C1q bound per antibody captured on Protein L
T3 construct: Bought (PROSPEC or Calbiochem); also called human C1q
Protocol: The interaction between an antibody and human C1q was analyzed using Biacore T200 (GE Healthcare). HBS-EP+ (GE Healthcare) was used as the running buffer, and the measurement temperature was set at 25° C. Chips produced by immobilizing Protein L (ACTIGEN or BioVision) onto Series S sensor Chip CM4 (GE Healthcare) by amine coupling were used.
The antibodies of interest were captured onto these sensor chips, and allowed to interact with human complement C1q (PROSPEC or Calbiochem) diluted in the running buffer. The amount of antibody binding was determined, and comparisons were made among the antibodies. However, since the amount of C1q bound depends on the amount of captured antibodies, corrected values obtained by dividing the amount of C1q bound by the amount of each antibody captured were compared. Furthermore, by reaction with 10 mM glycine-HCl, pH 1.5, the antibodies captured onto the sensor chips were washed, and the sensor chips were recycled and reused.

T3 sequence (P02745 23-245 limits assumed, chain 1 of 3): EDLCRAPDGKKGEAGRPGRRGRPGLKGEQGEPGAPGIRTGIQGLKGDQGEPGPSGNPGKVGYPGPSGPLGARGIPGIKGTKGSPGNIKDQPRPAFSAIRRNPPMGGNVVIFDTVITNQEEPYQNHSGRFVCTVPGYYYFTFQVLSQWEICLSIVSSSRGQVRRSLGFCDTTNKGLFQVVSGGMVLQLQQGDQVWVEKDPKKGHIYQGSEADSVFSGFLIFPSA
T3 sequence (P02746 28-253 limits assumed, chain 2 of 3): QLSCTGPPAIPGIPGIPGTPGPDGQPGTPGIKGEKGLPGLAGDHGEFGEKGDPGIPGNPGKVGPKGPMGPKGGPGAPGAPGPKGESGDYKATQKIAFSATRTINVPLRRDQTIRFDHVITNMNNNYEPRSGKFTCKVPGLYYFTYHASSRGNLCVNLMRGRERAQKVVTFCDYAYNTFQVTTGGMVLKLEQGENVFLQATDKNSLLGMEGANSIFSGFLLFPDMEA
T3 sequence (P02747 29-245 limits assumed, chain 3 of 3): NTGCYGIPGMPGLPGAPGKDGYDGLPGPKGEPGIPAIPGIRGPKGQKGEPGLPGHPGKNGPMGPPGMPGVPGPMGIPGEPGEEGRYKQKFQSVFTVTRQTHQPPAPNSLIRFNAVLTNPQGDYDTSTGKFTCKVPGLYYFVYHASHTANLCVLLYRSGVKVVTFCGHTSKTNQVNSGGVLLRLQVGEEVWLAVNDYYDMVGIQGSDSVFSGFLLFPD

Relative FcgRIIb-binding Activity (FcgRIIb) [IL6R-G1d/IL6R-L=100]	Relative FcgRIIaR-binding Activity (FcgRIIaR) [IL6R-G1d/IL6R-L=100]	Amount of C1q-binding when that for G1d is Defined as 100 (human complement C1q) [G1d=100]	Binder
115	98.5	15.2	IL6R-G1dGSS/IL6R-L (antibody, human IgG1, kappa) heavy: QVQLQESGPGLVKPSETLSLTCAVSGHSISHDHAWSWVRQPPGEGLEWIGFISYSGITNYNPSLQGRVTISRDNSKNTLYLQMNSLRAEDTAVYYCARSLARTTAMDYWGEGTLVTVSSASTKGPSVFPLAPSSKSTSGGTAALGCLVKDYFPEPVTVSWNSGALTSGVHTFPAVLQSSGLYSLSSVVTVPSSSLGTQTYICNVNHKPSNTKVDKKVEPKSCDKTHTCPPCPAPELLGGPSVFLFPPKPKDTLMISRTPEVTCVVVDVSHEDPEVKFNWYVDGVEVHNAKTKPREEQYNSTYRVVSVLTVLHQDWLNGKEYKCKVSNKGLPSSIEKTISKAKGQPREPQVYTLPPSRDELTKNQVSLTCLVKGFYPSDIAVEWESNGQPENNYKTTPPVLDSDGSFFLYSKLTVDKSRWQQGNVFSCSVMHEALHNHYTQKSLSLSP light: not shown
93	9.7	35.5	IL6R-P727/IL6R-L (antibody, human IgG1, kappa) heavy: QVQLQESGPGLVKPSETLSLTCAVSGHSISHDHAWSWVRQPPGEGLEWIGFISYSGITNYNPSLQGRVTISRDNSKNTLYLQMNSLRAEDTAVYYCARSLARTTAMDYWGEGTLVTVSSASTKGPSVFPLAPSSKSTSGGTAALGCLVKDYFPEPVTVSWNSGALTSGVHTFPAVLQSSGLYSLSSVVTVPSSSLGTQTYICNVNHKPSNTKVDKKVEPKSCDKTHTCPPCPAPELLGQDSVMLFPPKPKDTLMISRTPEVTCVVVDVSPEDPEVKFNWYVDGVEVHNAKTKPREEQENSTYRVVSVLTVLHQDWLNGKEYKCKVSNKALPHPIEKTISKAKGQPREPQVYTLPPSRDELTKNQVSLTCLVKGFYPSDIAVEWESNGQPENNYKTTPPVLDSDGSFFLYSKLTVDKSRWQQGNVFSCSVMHEALHNHYTQKSLSLSP light: not shown
119	10.8	21	IL6R-P691/IL6R-L (antibody, human IgG1, kappa) heavy: QVQLQESGPGLVKPSETLSLTCAVSGHSISHDHAWSWVRQPPGEGLEWIGFISYSGITNYNPSLQGRVTISRDNSKNTLYLQMNSLRAEDTAVYYCARSLARTTAMDYWGEGTLVTVSSASTKGPSVFPLAPSSKSTSGGTAALGCLVKDYFPEPVTVSWNSGALTSGVHTFPAVLQSSGLYSLSSVVTVPSSSLGTQTYICNVNHKPSNTKVDKKVEPKSCDKTHTCPPCPAPELFGQDSVMLFPPKPKDTLMISRTPEVTCVVVDVSHEDPEVKFNWYVDGVEVHNAKTKPREEQENSTYRVVSVLTVLHQDWLNGKEYKCKVSNKALPAPIEKTISKAKGQPREPQVYTLPPSRDELTKNQVSLTCLVKGFYPSDIAVEWESNGQPENNYKTTPPVLDSDGSFFLYSKLTVDKSRWQQGNVFSCSVMHEALHNHYTQKSLSLSP light: not shown
294	81.7	33.5	IL6R-P556/IL6R-L (antibody, human IgG1, kappa) heavy: QVQLQESGPGLVKPSETLSLTCAVSGHSISHDHAWSWVRQPPGEGLEWIGFISYSGITNYNPSLQGRVTISRDNSKNTLYLQMNSLRAEDTAVYYCARSLARTTAMDYWGEGTLVTVSSASTKGPSVFPLAPSSKSTSGGTAALGCLVKDYFPEPVTVSWNSGALTSGVHTFPAVLQSSGLYSLSSVVTVPSSSLGTQTYICNVNHKPSNTKVDKKVEPKSCDKTHTCPPCPAPDLLGDDSVFLFPPKPKDTLMISRTPEVTCVVVDVSDEDGEVKFNWYVDGVEVHNAKTKPREEQYNSTYRVVSVLTVLHQDWLNGKEYKCKVSNKALPAPIEKTISKAKGQPREPQVYTLPPSRDELTKNQVSLTCLVKGFYPSDIAVEWESNGQPENNYKTTPPVLDSDGSFFLYSKLTVDKSRWQQGNVFSCSVMHEALHNHYTQKSLSLSP light: not shown
350	106	132	IL6R-P587/IL6R-L (antibody, human IgG1, kappa) heavy: QVQLQESGPGLVKPSETLSLTCAVSGHSISHDHAWSWVRQPPGEGLEWIGFISYSGITNYNPSLQGRVTISRDNSKNTLYLQMNSLRAEDTAVYYCARSLARTTAMDYWGEGTLVTVSSASTKGPSVFPLAPSSKSTSGGTAALGCLVKDYFPEPVTVSWNSGALTSGVHTFPAVLQSSGLYSLSSVVTVPSSSLGTQTYICNVNHKPSNTKVDKKVEPKSCDKTHTCPPCPAPDLLGGDSVFLFPPKPKDTLMISRTPEVTCVVIDVAEEDGEVKFNWYVDGVEVHNAKTKPREEQYNSTYRVVSVLTVLHQDWLNGKEYKCKVSNKALPAPIEKTISKAKGQPREPQVYTLPPSRDELTKNQVSLTCLVKGFYPSDIAVEWESNGQPENNYKTTPPVLDSDGSFFLYSKLTVDKSRWQQGNVFSCSVMHEALHNHYTQKSLSLSP light: not shown
346	100	108	IL6R-P588/IL6R-L (antibody, human IgG1, kappa) heavy: QVQLQESGPGLVKPSETLSLTCAVSGHSISHDHAWSWVRQPPGEGLEWIGFISYSGITNYNPSLQGRVTISRDNSKNTLYLQMNSLRAEDTAVYYCARSLARTTAMDYWGEGTLVTVSSASTKGPSVFPLAPSSKSTSGGTAALGCLVKDYFPEPVTVSWNSGALTSGVHTFPAVLQSSGLYSLSSVVTVPSSSLGTQTYICNVNHKPSNTKVDKKVEPKSCDKTHTCPPCPAPELLGGDSVFLFPPKPKDTLMISRTPEVTCVVIDVAEEDGEVKFNWYVDGVEVHNAKTKPREEQYNSTYRVVSVLTVLHQDWLNGKEYKCKVSNKALPAPIEKTISKAKGQPREPQVYTLPPSRDELTKNQVSLTCLVKGFYPSDIAVEWESNGQPENNYKTTPPVLDSDGSFFLYSKLTVDKSRWQQGNVFSCSVMHEALHNHYTQKSLSLSP light: not shown
319	89.4	34.1	IL6R-P559/IL6R-L (antibody, human IgG1, kappa) heavy: QVQLQESGPGLVKPSETLSLTCAVSGHSISHDHAWSWVRQPPGEGLEWIGFISYSGITNYNPSLQGRVTISRDNSKNTLYLQMNSLRAEDTAVYYCARSLARTTAMDYWGEGTLVTVSSASTKGPSVFPLAPSSKSTSGGTAALGCLVKDYFPEPVTVSWNSGALTSGVHTFPAVLQSSGLYSLSSVVTVPSSSLGTQTYICNVNHKPSNTKVDKKVEPKSCDKTHTCPPCPAPELLGDDSVFLFPPKPKDTLMISRTPEVTCVVVDVSEEDGEVKFNWYVDGVEVHNAKTKPREEQYNSTYRVVSVLTVLHQDWLNGKEYKCKVSNKALPAPIEKTISKAKGQPREPQVYTLPPSRDELTKNQVSLTCLVKGFYPSDIAVEWESNGQPENNYKTTPPVLDSDGSFFLYSKLTVDKSRWQQGNVFSCSVMHEALHNHYTQKSLSLSP light: not shown
311	89.7	29.4	IL6R-P562/IL6R-L (antibody, human IgG1, kappa) heavy: QVQLQESGPGLVKPSETLSLTCAVSGHSISHDHAWSWVRQPPGEGLEWIGFISYSGITNYNPSLQGRVTISRDNSKNTLYLQMNSLRAEDTAVYYCARSLARTTAMDYWGEGTLVTVSSASTKGPSVFPLAPSSKSTSGGTAALGCLVKDYFPEPVTVSWNSGALTSGVHTFPAVLQSSGLYSLSSVVTVPSSSLGTQTYICNVNHKPSNTKVDKKVEPKSCDKTHTCPPCPAPDLLGDDSVFLFPPKPKDTLMISRTPEVTCVVVDVSEEDGEVKFNWYVDGVEVHNAKTKPREEQYNSTYRVVSVLTVLHQDWLNGKEYKCKVSNKALPAPIEKTISKAKGQPREPQVYTLPPSRDELTKNQVSLTCLVKGFYPSDIAVEWESNGQPENNYKTTPPVLDSDGSFFLYSKLTVDKSRWQQGNVFSCSVMHEALHNHYTQKSLSLSP light: not shown
